Results taken from IntAct's records for PubMed 21454543.

Assays:
rac1_human RAC1 = rac1_human RAC1 (UniProt P63000)
lrrk2_human LRRK2 = lrrk2_human LRRK2 (UniProt Q5S007)

| Substance | effect of a mutation on the interaction (rac1_human RAC1) | effect of a mutation on the interaction (lrrk2_human LRRK2) |
| --- | --- | --- |
| Leucine-rich repeat serine/threonine-protein kinase 2 (Homo sapiens), Q5S007 G2019S | decreasing interaction | – |
| Leucine-rich repeat serine/threonine-protein kinase 2 (Homo sapiens), Q5S007 I2020T | increasing interaction | – |
| Leucine-rich repeat serine/threonine-protein kinase 2 (Homo sapiens), Q5S007 K1906M | decreasing interaction | – |
| Leucine-rich repeat serine/threonine-protein kinase 2 (Homo sapiens), Q5S007 R1441C | disrupting interaction | – |
| Leucine-rich repeat serine/threonine-protein kinase 2 (Homo sapiens), Q5S007 Y1699C | increasing interaction | – |
| Ras-related C3 botulinum toxin substrate 1 (Homo sapiens) (from UniProt P63000) T17N | – | decreasing interaction |
